T1: MdMYB1-HIS (Malus domestica, UniProt M1UZJ0 1-243)
T1 sequence: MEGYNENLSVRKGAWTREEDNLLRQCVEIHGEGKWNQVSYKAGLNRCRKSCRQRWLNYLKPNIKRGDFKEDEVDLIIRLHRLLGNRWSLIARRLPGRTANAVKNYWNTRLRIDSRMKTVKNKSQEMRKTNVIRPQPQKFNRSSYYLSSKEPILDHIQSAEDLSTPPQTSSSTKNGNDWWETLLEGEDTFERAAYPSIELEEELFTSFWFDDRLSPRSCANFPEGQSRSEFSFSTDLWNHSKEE


Biological target: T1, MdMYB1-HIS
Test: EMSA; Proteins and biotin probes mixed in binding buffer for 25 min, acrylamide gel; buffer, salt, pH and temperature not stated
Conditions: protein: recombinant; tags: His (pET32a); label: biotin; blunt

Binder	binding result
MdDFR-Probe (dsDNA) DNA 1: CGTGCGTCAACCGTTAGGAAAGCACG DNA 2: CGTGCTTTCCTAACGGTTGACGCACG	binds
MdUF3GT-Probe (dsDNA) DNA 1: ACCTTCCCGTCAGTTATTGCAGGTGG DNA 2: CCACCTGCAATAACTGACGGGAAGGT	binds

Source: paper PMC7475178, “Dynamic regulation of anthocyanin biosynthesis at different light intensities by the BT2-TCP46-MYB1 module in apple”
